Data from paper PMC10657434, “Architecture of the baculovirus nucleocapsid revealed by cryo-EM” (Nature Communications, 2023).

B4: AC104 (VP80) (natural protein)
chain: MNDSNSLLITRLAAQILSRNMQTVDVIVDDKTLSLEEKIDTLTSMVLAVNSPPQSPPRVTSSDLAASIIKNNSKMVGNDFEMRYNVLRMAVVFVKHYPKYYNETTAGLVAEIESNLLQYQNYVNQGNYQNIEGYDSLLNKAEECYVKIDRLFKESIKKIMDDTEAFEREQEAERLRAEQTAANALLERRAQTSADDVVNRADANIPTAFSDPLPGPSAPRYMYESSESDTYMETARRTAEHYTDQDKDYNAAYTADEYNSLVKTVLLRLIEKALATLKNRLHITTIDQLKKFRDYLNSDADAGEFQIFLNQEDCVILKNLSNLASKFFNVRCVADTLEVMLEALRNNIELVQPESDAVRRIVIKMTQEIKDSSTPLYNIAMYKSDYDAIKNKNIKTLFDLYNDRLPINFLDTSATSPVRKTSGKRSAEDDLLPTRSSKRANRPEINVISSEDEQEDDDVEDVDYEKESKRRKLEDEDFLKLKALEFSKDIVNEKLQKIIVVTDGMKRLYEYCNCKNSLETLPSAANYGSLLKRLNLYNLDHIEMNVNFYELLFPLTLYNDNDNSDKTLSHQLVNYIFLASNYFQNCAKNFNYMRETFNVFGPFKQIDFMVMFVIKFNFLCDMRNFAKLIDELVPNKQPNMRIHSVLVMRDKIVKLAFSNLQFQTFSKKDKSRNTKHLQRLIMLMNANYNVI
notes: AC104 (VP80) of AcMNPV, as present in the native nucleocapsid; only Ile490-Thr664 and Asn673-Asn685 (AC104-1, AC104-2) and Asp463-Ile691 (AC104-3) are resolved and modelled; also called AC104-1; AC104-2; source: AcMNPV ODV nucleocapsids from occlusion bodies of infected Spodoptera exigua larvae; alkaline lysis, centrifugation

Assays:
[1] = biological target: the molecule itself; test: cryo-EM structure; helical cylinder of native AcMNPV ODV nucleocapsids; helical reconstruction 3.9 Å, local refinement 3.2 Å; VP39 model built de novo; partners co-purified as the native nucleocapsid
AC104 (VP80) = biological target: B4; test: cryo-EM structure; head and base of native AcMNPV ODV nucleocapsids; local refinement 4.3 Å (elements common to both ends), 4.8 Å (base with AC98), 4.9 Å (plug); AlphaFold2 models docked into density and refined; partners co-purified as the native nucleocapsid; conditions: both partners purified
[2] = biological target: the molecule itself; test: as above
[3] = biological target: the molecule itself; test: cross-linking; purified AcMNPV nucleocapsid, 2 mM BS3 on ice 2 h, stopped with 50 mM Tris-HCl pH 7.5; mass spectrometry, pLink2

B1: major capsid protein VP39 (natural protein)
chain: MALVPVGMAPRQMRVNRCIFASIVSFDACITYKSPCSPDAYHDDGWFICNNHLIKRFKMSKMVLPIFDEDDNQFKMTIARHLVGNKERGIKRILIPSATNYQDVFNLNSMMQAEQLIFHLIYNNENAVNTICDNLKYTEGFTSNTQRVIHSVYATTKSILDTTNPNTFCSRVSRDELRFFDVTNARALRGGAGDQLFNNYSGFLQNLIRRAVAPEYLQIDTEELRFRNCATCIIDETGLVASVPDGPELYNPIRSSDIMRSQPNRLQIRNVLKFEGDTRELDRTLSGYEEYPTYVPLFLGYQIINSENNFLRNDFIPRANPNATLGGGAVAGPAPGVAGEAGGGIAV
notes: major capsid protein VP39 of Autographa californica multiple nucleopolyhedrovirus (AcMNPV), as present in the native nucleocapsid; regions described in the model run from Arg14 to Asn320; Native virion protein; forms disulfide-linked dimers arranged as a 14-start helical cylinder; also called VP39A; VP39B; source: AcMNPV ODV nucleocapsids from occlusion bodies of infected Spodoptera exigua …
binding result [1]: binds
binding result (AC104 (VP80)): binds

B2: AC101 (BV/ODV-C42) (natural protein)
chain: MSAIALYLEINKLRLKIDEPMQLAIWPQLFPLLCDEHQSVQLNTDVLINFMMHVARKSQNTILNNNAAIASQYAAGNADVVAAPASAQPTPRPVINLFARANAAAPAQPSEELINMRRYRNAARKLIHHYSLNSTSSTEYKISDVVMTMIFLLRSEKYHSLFKLLETTFDDYTCRPQMTQVQTDTLLDAVRSLLEMPSTTIDLTTVDIMRSSFARCFNSPIMRYAKIVLLQNVALQRDKRTTLEELLIERGEKIQMLQPQQYINSGTEIPFCDDAEFLNRLLKHIDPYPLSRMYYNAANTMFYTTMENYAVSNCKFNIEDYNNIFKVMENIRKHSNKNSNDQDELNIYLGVQSSNAKRKKY
notes: AC101 (BV/ODV-C42) of AcMNPV, as present in the native nucleocapsid; ~110 N-terminal and ~30 C-terminal residues are not resolved; modelled parts include Glu112-Asn218, Ser219-Thr241 and Leu243-His334; also called BV/ODV-42; AC101-1; source: AcMNPV ODV nucleocapsids from occlusion bodies of infected Spodoptera exigua larvae; alkaline lysis, centrifugation
binding result [2]: binds

B3: polyhedrin (natural protein)
chain: MPDYSYRPTIGRTYVYDNKYYKNLGAVIKNAKRKKHFAEHEIEEATLDPLDNYLVAEDPFLGPGKNQKLTLFKEIRNVKPDTMKLVVGWKGKEFYRETWTRFMEDSFPIVNDQEVMDVFLVVNMRPTRPNRCYKFLAQHALRCDPDYVPHDVIRIVEPSWVGSNNEYRISLAKKGGGCPIMNLHSEYTNSFEQFIDRVIWENFYKPIVYIGTDSAEEEEILLEVSLVFKVKEFAPDAPLFTGPAY
notes: polyhedrin of AcMNPV, left in the nucleocapsid sample after alkaline lysis of occlusion bodies; also called polyhedrins; source: present in the buffer of the AcMNPV nucleocapsid preparation (nucleocapsids not isolated by gradient centrifugation)
binding result [3]: binds

B4
binding result [2]: binds
